Consider one substance from article PMC5017680, “treA Codifies for a Trehalase with Involvement in Xanthomonas citri subsp. citri Pathogenicity” (PLoS ONE, 2016).

The data set deals with OC[C@H]1O[C@H](O[C@H]2O[C@H](CO)[C@@H](O)[C@H](O)[C@H]2O)[C@H](O)[C@@H](O)[C@@H]1O. The data set can be described thus: purified protein. Particulars: 25 °C, Glucose Liquiform kit solution, 0.03125-4 mM trehalose.

As a reminder, the Km is the concentration of substrate that gives half-maximal velocity. Take “Xcc TreA (recombinant Xcc trehalase) (Xanthomonas citri subsp. citri 306)”: the Km was 77 µM.
